Measurements from patent US20250034594A1, “RNA-GUIDED GENOME RECOMBINEERING AT KILOBASE SCALE” (THE BOARD OF TRUSTEES OF THE LELAND STANFORD JUNIOR …, priority 2021, published 2025).

What was measured:
Assay type in all cases: cell-based
[1] = system: mammalian cells; assay: Arrayed SSAP library screening, cell viability by live cell counts via flow cytometry
Protocol: (§1) Each SSAP encoding plasmid was tested in duplicate, including a negative control (same plasmid encoding Flag_HA which is not expected to promote gene editing). Transfections were in 96-well plates and transfection efficiency was estimated to be 50%.
(§2) Three days after transfection, mKate positive cells and cell viability were quantified across all replicates, along with positive (original RecT SSAP) and negative (Flag-HA control protein) controls. […] At the same time, the cell viability was measured by live cell counts via flow cytometry, to help quantify the fitness effect of SSAP on mammalian cells.
(§3) SSAP proteins are identified by Uniparc deposit number and SEQ ID NO. Alignment numbers correspond to SSAPs in FIGS. 58, 59, and 60.

[2] = system: endogenous genome targets (ACTB, HSP90AA1); assay: Arrayed SSAP library screening, mKate knock-in assay (editing efficiency); settings: average of HSP90 and ACTB, 3 days after transfection; for Editing Efficiency (Normalized, Average, two targets): fold over negative control (Flag_HA); for Editing Efficiency (Absolute, Average, two targets): percent of mKate knock-in
Protocol: Arrayed SSAP library screening on endogenous genome targets (ACTB. HSP90AA1) using mKate knock-in assay.
SSAP-encoding plasmids were purified and quantified.
as §1, §2, §3

[3] = system: gene editing with Cas9; assay: Screen of 322 new SSAP proteins, gene editing activity with Cas9 (Table 5); design: Cas9 with SSAP activity: scale not given here
Outline: (§4)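 First, 322 new single-strand annealing proteins are identified from sequences. Next they are synthesized. Finally each is assayed for editing in combination with Cas9 and, separately, dCas9.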

[4] = system: gene editing with Cas9 and dCas9; assay: Screen of 322 new SSAP proteins, activity across all experiments (Cas9 and dCas9, Table 5); design: scale not given here
Outline: as §4

[5] = system: gene editing with dCas9; assay: Screen of 322 new SSAP proteins, gene editing activity with dCas9 (Table 5); design: dCas9 with SSAP activity: scale not given here
Outline: as §4

Row | Molecule | Cell Viability (Average, two targets) [1] | Editing Efficiency (Normalized, Average, two targets) [2] | Editing Efficiency (Absolute, Average, two targets) [2] | Cas9 with SSAP activity [3] | Cas9 with SSAP activity (normalized) [3] | Activity across all experiments [4] | dCas9 with SSAP activity [5] | dCas9 with SSAP activity (normalized) [5]
1 | SSAP_67: SEQ ID NO: 236 (protein) TSQQLDTTHTINQQVTTFRHTLVQMKNEIAAALPAHMTGDRFLRLILTEVRKNPELAECSTESIFGGILTAAALGLEPGLNGECWLIPRKVGKGPGSRKEATFQVGYKGIIKLFWQNPLASYLDTGVVYANDAWKFRKGLDPILEHTPATGDRGAVRGYYAVVGLTTGARIFDFFTPKQISALRGTAGPNGGISDPEHWMERKTALLQVMKMAPKSTDLASAASVDGTVQTVEAAAQVAAASTGPVNPTTGEVLEAEPVEGGAA | 1.088 | 4.616 | 11.4625 | – | – | – | – | –
2 | SSAP_191: SEQ ID NO: 360 in b312 (Table 9 prints 354); Microbacterium sp. K41 (protein, listed as Microbacterium sp.) SKDLSTAAAAAKSQPTMKDLVEAQLPAIERQLGGAMNSDAFVRAVLSEIGKSPDLMNADPKTLLGGVMLAAQLRLEIGSGLGEFYLTPRKDRGRQICLPIIGYQGMIKLALRSEYVLNVQAFLVREGDDFTYGGNSERGMFYDWTPKDFEESRPWIGVVATAKMRGGGTTWVYLTRTQVIDRRPSYWASTPWKTNEDEMVKKTAVRALAKFLPKSTDLGRALEADEAKVQHLKGVDEVQVTRLDDDAETFVVQEQDPMSRTPEEQAEDEANR | 1.129 | 4.75 | 11.75 | – | – | – | – | –
3 | SSAP_239: SEQ ID NO: 408; Paenibacillus polymyxa (protein, listed as Paenibacillus polymyxa) PDKLLVIHDNLNKMLDEKSEAMPTSFNKTRFLQNCMAVLQDTKDIEQCDAKSVARTMLKGAFLGLDFFNKECYAIPYNENIGTKNKPRWIKSLQFQTDYKGEKKLAKKYSTRRVKDIYAKLVRDGDDFREEIESGQPTINFRPLPFNDGIIRGAFAVALFEDGGMIYETMSLKEIEKTRDDYSKQSTGKAWTKSPGEMYKKTVLRRLCKNIELDFDTIEQAQAFEDSSDFDMNKELKPQQQSPLNPNTTIIDAEYEEIKEEPADGPEQE | – | – | – | 1.340 | 0.516 | 1.811 | 2.282 | 1.278
4 | SSAP_190: SEQ ID NO: 359; Microbacterium laevaniformans OR221 (protein, Microbacterium laevaniformans, Microbacterium laevaniformans OR221) TDLSTVAAAAKQNPTMKDLVEAQLPAIERQLGGTMNSDAFVRAVLSEITKSPDLMQADPKTLLGGVMLAAQLRLEIGSGLGEFYLTPRKDHGRMICLPIVGFQGMVKLALRSEFVTNVQAFIVREGDDFTYGANAERGMFYDWTPKDFEEKRPMVGVVATARMKQGGTTWAYLTREQVEDRRPSYWQKTPWGSHPDEMAKKTAVRALAKYLPKATDLGRAIEADEQKVQHVKGLDEVTVTRLDDEPETVVVQETTDAWAATPVAEVQP | 1.044 | 5.26 | 13.025 | – | – | – | – | –
5 | SSAP_220: SEQ ID NO: 389; Amycolatopsis circi (protein, listed as Amycolatopsis circi) ISQTVTTAVAQQKDSSPAALVRKYRTDFATVLPSHIKPETWLRIATGALRRSPQLANAAKRNPSSLLVALLEAARKGLEPGTEQFYLVPRKGKNGPEVLGITGYQGEVELMYRAGAVSSVKVEVVREHDTFAYNPGEHDRPVHEIDWRADRGDLVLTYAYAVMRDGATSNVVVLSADDIAVILKKADGADSPFSPWQWNPKAMWLKSAARQLAKWVPTSAEYVRLPDVPLESLPPAKPLDLPRVDDVVDAEIVEDWPTAPDDTADGAR | 0.9152 | 4.599 | 11.375 | – | – | – | – | –
6 | SSAP_10: SEQ ID NO: 179; Bet Escherichia coli (protein, listed as Escherichia coli) STALATLAGKLAERVGMDSVDPQELITTLRQTAFKGDASDAQFIALLIVANQYGLNPWTKEIYAFPDKQNGIVPVVGVDGWSRIINENQQFDGMDFEQDNESCTCRIYRKDRNHPICVTEWMDECRREPFKTREGREITGPWQSHPKRMLRHKAMIQCARLAFGFAGIYDKDEAERIVENTAYTAERQPERDITPVNNETMQEINTLLIALDKTWDDDLLPLCSQIFRRDIRASSELTQAEAVKALGFLKQKATEQKVAA | 1.237 | 5.75 | 14.25 | – | – | – | – | –
7 | SSAP_210: SEQ ID NO: 379; Rufibacter latericius (protein, listed as Rufibacter latericius) SNQLQVAREQVISAQKSFKNVPNNKLDFEREAGFAMQMIQSNPFLASMDANSIRNCIVNVALTGLTLNPVLKLAYLVPRKGKLILDPSYMGLINVLVTSGAAKKIEADVVCENDFFDYEKGTNGFIKHKPSLSSRGEIIAAYAIAHLPNGEVQFEIMNREELEKVRKSSEAAKKGSSPYDGWASEMMRKAPIRRLFKYLPKHNIPDQVINTLSLDEQNNGVDFSAQKQEAFKGKAADFFEDEPANTVDADYTDMSHEEADNELAA | 0.408 | 6.484 | 16.05 | – | – | – | – | –
8 | SSAP_173: SEQ ID NO: 342; Tyzzerella nexilis (protein, listed as Tyzzerella nexilis) AGVKEELAKKAESTKGETKLTKSMSIADLIKAMEPEIKKALPEVITPERFTRMALSALNTTPKLRECTQMSFLAALMNAAQLGLEPNTPLGQAYLIPYNNKGVMECQFQIGYKGLIDLSYRNPQMQIISAQAVYENDDFSYELGLNPKLEHCPTLGERGEVRLFYGFFKLVNGGFGFEVMSKTAMDEYAKEYSKAFDSSFSPWKSNYIGMAKKTVIKQALKYAPLKTDFRKALSNDETIKTELSDDMSDIHGEEIWDVEYQEKTA | 0.8787 | 4.674 | 11.55 | – | – | – | – | –
9 | SSAP_29: SEQ ID NO: 198 (protein) STALATLAGKLAERVGMDSVDPQELITTLRQTAFKGDASDAQFIALLIVANQYGLNPWTKEIYAFPDKQNGIVPVVGVDGWSRIINENQQFDGMDFEQDDESCTCRIYRKDRNHPICVTEWMDECRRAPFKTREGREITGPWQSHPKRMLRHKAMIQCARLAFGFAGIYDKDEAERIVENTAYTTERQPERDITPVNEETMSEINALLTSMEKTWDDDLLPLCSQIFRRYIRASSELSQAEAEKVLGFLKQKATEQKVAA | 1.131 | 5.204 | 12.9225 | – | – | – | – | –
10 | SSAP_192: SEQ ID NO: 361; Streptococcus pyogenes (protein, Streptococcus pyogenes) SDLSVAAAAAKTQPTMKDLVEAQLPAIERQLGGAMNSAAFVRAVLSEIGKSPDLMAADPKTLLGGVMLAAQLRLEIGSGLGEFYLTPRKERGRQICLPIIGYQGLIKLALRSEFVMNVQAFLVRQGDQFSYGANAERGMFYDWVPQDFEETRDWIGVVATARMRSGGTTWVYLTRTQVIDRRPSYWNSTPWKTNEDEMVKKTAVRALAKFLPKSTDLGRALEADEAKVQTLRGLDEVEVTRLDDEADTVVVQEQNPMSRTPEEQAEDAEAQR | 1.071 | 5.372 | 13.3 | – | – | – | – | –
11 | SSAP_152: SEQ ID NO: 321; Clostridiaceae bacterium (protein, listed as Clostridiaceae bacterium) SNLKKALKTNETKGNSVTVSKAYAMKQLMIKMKGEITSALPTNLSSERFEKVALTAFNSNPKLQKCDPRTFIAAMMQSAQLGLEPNTALGLAYLIPYEVKGINKVQFQIGYKGLLELANRSGKLKTLYAHEVRENDEFDIDYGLEQKLIHKPLLKGNRGNVIGYYAVYHLEPSGYNFVFMTYDEVLEHGKKYSKSFEGGVWEKEFDSMAKKTVIKKLLKYAPLSIEMQKAIVFDESVKGSIDSDMLLVDKEDESIEGSELN | 1.159 | 6.574 | 16.25 | – | – | – | – | –
12 | SSAP_23: SEQ ID NO: 192 (protein) TNNQLATQIKRDITTDPSLLTGADIKKYFDPQNLLTEKQVGQALALCKGRNLNPFANEVYIVAYQNNSGTEFSLIVSKEAFMKRAERCEGYDGFEAGITVMRNGEMIEIEGSLKLPEDILIGGWAVVYRKDRSHRYKVTVDFNEYVKTDRNGNPRSTWKSMPATMIRKTALVQTLREAFPDELGNMYTDIDGGDTFDAIKDVTPQESREDVVARKMAQIDQFNKEQEANHADPEPTQNEDPIQGELLDGELEY | – | – | – | 0.839 | 0.359 | −0.998 | −2.835 | −0.450
